Reference: patent US20130330358A1, “CRYSTAL STRUCTURE AND PEPTIDE INHIBITORS OF HAUSP DEUBIQUITINASE” (priority 2011, published 2013)
Like-named read-outs stand apart in the source and are kept apart here.

Legend:
[1] = target: T1, HAUSP TRAF domain HAUSP^62-205 (Homo sapiens, UniProt Q93009); test: biochemical; format: binding; details: for n: Table 1a, ITC fit parameter n, 150 mM NaCl, 10 mM HEPES (pH 7.0)
T1 construct: HAUSP^62-205, and HAUSP^62-560 were fused to a hexahistidine-tag2 and expressed in E. coli BL21 (DE3) RIPL cells; hexahistidine (cleaved yes); made in house; host or cells: E. coli BL21 (DE3) RIPL
T1 sequence (Q93009 62-205): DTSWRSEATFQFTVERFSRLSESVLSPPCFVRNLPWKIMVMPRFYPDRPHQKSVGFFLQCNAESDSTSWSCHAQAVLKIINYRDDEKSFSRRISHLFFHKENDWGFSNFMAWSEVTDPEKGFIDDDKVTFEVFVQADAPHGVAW
Method: FIG. 5. Typical isothermal titration calorimetric measurements of the interactions between the HAUSP TRAF domain and the vIRF4 protein derivatives or other peptides. Purified proteins and synthesized peptides were reconstituted in 150 mM NaCl and 10 mM HEPES (pH 7.0). The calorimetric assays were performed using a VPITC system. All experiments were carried out with a stirring speed of 300 rpm at 20° C., and the thermal power was recorded every 10 s. Data were analyzed using the ORIGIN software package (version 7.0). […] Each titration against the HAUSP TRAF domain is indicated in each panel.
Purified proteins and synthesized peptides (Peptron Inc., Deajeon, Korea) were reconstituted in 150 mM NaCl and 10 mM HEPES (pH 7.0). The calorimetric assays were performed using a VP-ITC system (MicroCal Inc., Northampton, Mass.). Samples were degassed by vacuum aspiration for 15 min prior to loading. All experiments were carried out with a stirring speed of 300 rpm at 20° C., and the thermal power was recorded every 10 s. Data were analyzed using the ORIGIN software package (version 7.0) supplied with the instrument. […]

[2] = target: T1, HAUSP TRAF domain HAUSP^62-205; test: Size exclusion chromatography, complex formation in 5-fold excess of MDM2^137-152; format: binding; details: in the presence of a 5-fold molar excess of MDM2 peptide

B1: vIRF4^153-256: vIRF4 aa 153-256 region, hexahistidine-tagged, expressed in E. coli (protein)
chain: SDTREQSYEEAGAAAPAPPKAPSGLRGRPRKSNRYYNVGDITTEQKAACSVWIPVNEGASTSGMGSSGTRQVTQASSFTWRVPGDPPAPSTLTGPSDPHSSGAG
modifications: left off: small tags and cut ends
notes: vIRF4 aa 153-256 region, hexahistidine-tagged, expressed in E. coli
Question: What does the source list for B1?
Answer: Kd ([1]; HAUSP^62-205 and vIRF4^153-256, ITC, read-out: dissociation constant (Kd)): 76 nM; Kd ([1]; ITC, 20° C., read-out: Kd): 76 nM; n ([1]; 20° C.): 1.13 ± 0.18

B2: vIRF4^153-216: vIRF4 aa 153-216 fragment, hexahistidine-tagged, expressed in E. coli (protein)
chain: SDTREQSYEEAGAAAPAPPKAPSGLRGRPRKSNRYYNVGDITTEQKAACSVWIPVNEGASTSGM
modifications: left off: small tags and cut ends
notes: vIRF4 aa 153-216 fragment, hexahistidine-tagged, expressed in E. coli
Question: B2 was tested. Which “complex formation with the HAUSP TRAF domain” value [2] did it give?
Answer: The value was “formed a stable complex”.

Question: What about the Kd ([1]; ITC, 20° C., read-out: Kd) of the same molecule?
Answer: The Kd was 540 nM.

Question: What about the n ([1]; 20° C.) of the same molecule?
Answer: The n was 0.82 ± 0.09.
